The record followed here is article PMC4491180.

For orientation: pKd means −log10 of the Kd, conventionally taken in molar units.

Assay [1] has as its target wild-type Grb2 (growth factor receptor-bound protein 2), bacterially expressed and purified (UniProt P62993). The experiment in a line: MST; monomer–dimer equilibrium of Grb2 in the presence of the SOS1 peptide (…); apparent Kd, dimer to monomers.
Assay [2] has the same target. As to the kind of experiment: MST; unlabelled Grb2 (7.3 nM to about 30 μM) titrated into 100 nM Atto488-labelled Grb2; 20 °C; PBS without calcium and magnesium, 0.01% Tween 20; apparent Kd, dimer to monomers.

pKd: −log10 of the molar value.

On to “wild-type Grb2 (growth factor receptor-bound protein 2), bacterially expressed and purified (from UniProt P62993 1-217) (natural protein)”, for which the pKd in assay [1] was 6.15; in assay [2] it was 6.12.
